Consider 41 sequences from the nanobody polyreactivity screen of Harvey et al. (2022).

This data set is described as follows: yeast display, Sf9 membrane polyspecificity reagent, FACS + sequencing; frameworks hold sequencing errors. In short, it runs like this:
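Galactose-induced (36–48 hours) yeast carrying a synthetic nanobody display library were exposed to 10% biotinylated, detergent-solubilized Sf9 membrane reagent at 4 °C for 1 hour. FACS followed streptavidin microbead enrichment, using low and high (top ~1%) gates for expression (anti-HA) and reagent binding (streptavidin). Colony PCR, MiSeq 2 × 250 sequencing and CDR-length filtering followed. Labels for polyreactivity reflect the gate of origin.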
With “QVQLVESGGGLVQAGGSLRLSCAASGRIVRNAMGWYRPAPGKEWELVAAITRSGGSTYYADSVKGRFTISRDNAKKTVYLQMNSLKPEDTAVYYCAARHYRSRDGYSGQGTQVTVSS”, the “polyreactivity (PSR sort gate)” value is “high polyreactivity”.

For “QVQLVESGGGLVQAGGSLRLSCDASGLIFPWNSMGWYRQAPGQERELVAAINGRDGSTYYADSVKGRFTISRDNAKNTVYLQMNSLKPEDTAVFYCAKGPSGVRTYREYDSWGQGTQVTVSS”, the “polyreactivity (PSR sort gate)” value is listed as “low polyreactivity”.

Take “QVQLVESAGGLVQAGGSLRLSCAASGRIFSAYAMRWYRQARGKERQLVAAITWSGANTDYADSVKGRFTISRDNAKNTVYLQMTSLKPEDTAVYYCNASFGRDSAYDYWGQGTQVTVSS”: the “polyreactivity (PSR sort gate)” value is recorded as “low polyreactivity”.

For the sequence “QVQLVESGGGLVQAGGSLRLSCAASGFTFRRYDMGWYRQAPGKERELVATINRGGSTDYADSVKGRFTISRDNAKNTVYLQMNSLKPEDTAVYYCATRYYSSRTWSEYYYWGQGTQVTVSS”, the “polyreactivity (PSR sort gate)” value is on record as “high polyreactivity”.

For “QVQLVESGGGLVQAGGSLRLSCAASGLTFFYYAMGWYRQAPGKERELVASISSSGITNYADSVKGRFTISRDNAKNTVYLQMNSLKPEDTAVYYCASQYYISPLRYYSPTGGYWGQGTQVTVSS”, the “polyreactivity (PSR sort gate)” value was “high polyreactivity”.

As for “QVQLVESGGGLVQAGGSLRLSCAASGRTFTYNAMGWYRQAPGKDRELVASIRRSGTITYSADSVKGRFTISRDNAKNTVYLQMNSLKPEDTAVYYCAARYPWYRYYSWGQGTQVTVSS”, the “polyreactivity (PSR sort gate)” value was “high polyreactivity”.

With “QVQLVESGGGLVQAGGSLRLSCAASGITFDDYDMGWYRQAPGKERELVAAISWSGGSTYYADSVKGRFTISRDNAKTTVYLQMNSLKPEDTAVYYCAAEVIWWVREYYYWGQGTQVTVSS”, the “polyreactivity (PSR sort gate)” value is on record as “low polyreactivity”.

Take “QVQLVESGGGLVQAGGSLRLSCAASGSTFSHYAMGWYRQATGKERELVAAISKSGGITYYADSVKGRFTISRDNAKNTVYLQMNSLKPEDTAVYYCNARWSWRGTRYDYGYWGQGTQVTVSS”: the “polyreactivity (PSR sort gate)” value is “low polyreactivity”.

For the sequence “QVQLVESGGGLVQAGGSLRLSCAASGRIFISNAMGWYRQAPGKERELVAAITWIGDRTYYADSVKGRFTISRDNAKNTVYLQMNSLKPEDTAVYYCNRVTSRVSGRYSYDYWGQGTQVTVSS”, the “polyreactivity (PSR sort gate)” value is “high polyreactivity”.

As for “QVQLVESGGGLVQAGGSLRLSCAASGSIFPGNALGWYRQAPGKERELVAVIDFSGASTYYADSVKGRFTISRDNAKNTVYLQMNRLKPEDTADYWGQGTQVTVSS”, the “polyreactivity (PSR sort gate)” value was “low polyreactivity”.

On to “QVQLVESGGGLVQAGGSLRLSCAASGRILHANAMGWYRQAPGKEREFVAAISVSGVSTYYADSVKGRFTISRDNAKNTVYLQMNSLKPEDTAVYYCNAETYSWYDYWGQGTQVTVSS”, for which the “polyreactivity (PSR sort gate)” value is listed as “high polyreactivity”.

As for “QVQLVESGGGLVQAGGSLRLSCAASGSIFRANAMGGYRQAPGKERELVATISSGGSTNYADSVKGRFTISRDNAKNTVYLQMNSLKPEDTAVYYCAVKWYPPGHDYWGQGTQVTVSS”, the “polyreactivity (PSR sort gate)” value is “low polyreactivity”.

For the sequence “QVQLVESVGGLVQAGGSLRLSCAASGLTCYGKTMGWYRQAPGKDRELVAAISFDGGNTYADSVKGRFTISRDNAKNTVYLQMNSLKPEDTAVYYDYWGQGNQVTVSS”, the “polyreactivity (PSR sort gate)” value is “low polyreactivity”.

Turning to “QVQLVESGGGLVQAGGSLRLSCAAPGSIFYPNAMGWYRQAPGKEREFVAAITKRGGSTYYADSVKGRFTISRDNAKNTVYLQMNSLKPEDTAVYYCAGERSYPRAGRYNYWGQGTQVTVSS”, the “polyreactivity (PSR sort gate)” value is recorded as “low polyreactivity”.

As to “QVQLVESGGGLVQAGGSLRLSCAASGRIFAWYVMGWYRQAPRKEREFVAAIRWRSGSTHYADSVKGRFTISRDNAKNTVYLQMNSLKPEDTAVYYCAVDSRTYNGDYWGQGTQVTVSS”, the “polyreactivity (PSR sort gate)” value is “high polyreactivity”.

With “QVQLVESGGGLVQAGGSLRLSCAASGSTFYYYARGWYRQAPGKERELVAAIDRDDRTNYADSVKGRFTISRDNAKNTVYLQMNSLKAEDTAVYYCAAVEIYEYDYWGQGTQVTVSS”, the “polyreactivity (PSR sort gate)” value was “low polyreactivity”.

“QVQLVESGGGLVQAGGSLRLSCAASGRIFRSYAMGWYRQAPGKERELVAAISSGGSTNYADSVKGRFTISRDNAKNTVYLQMNSLKPEDTAVYYCAASYLYEWSRFVYDGLYYWGQGTQVTVSS”: the “polyreactivity (PSR sort gate)” value is given as “low polyreactivity”.

On to “QVQLVESGGGLVQAGGTLRLSCAASGSMFDGNAMGWYRQAPGKERELVAAISRRGGSTYYADSVKGRFTISRDNAKNTVYLQKNSLKPEDTAVYYCNAYLSYFDGNYWGEGTQVTVSS”, for which the “polyreactivity (PSR sort gate)” value is listed as “high polyreactivity”.

With “QVQLVESGGGLVQAGGSLRLSCAASGSIFWFNAMGWYRQAPGKERELVAAIRRIGGSTYYADSVKGRFTISRDNAKNTVYLQMNSLKPEDTAVYYCAAGVTFRGASYGYWGQGTQVTVSS”, the “polyreactivity (PSR sort gate)” value is recorded as “high polyreactivity”.

Take “QVQLVESGGGLVQAGGSLRLSCAASGFTSGYNAMGWYRQAPGKERELVATITRGTRTYYADSVKGRFTISRDNAKNTVYLQMNSLKPEDTAVYYCNARVYYKTYGGYYSWGQGTQVTVSS”: the “polyreactivity (PSR sort gate)” value is on record as “high polyreactivity”.

Take “QVQLVESGGGLVQAGGSLRLSCAASGSICVDNAMGWYRQAPGKERELVAVITLRSGSTNYADSVKGRFTISRDNAKNTVYLQMNSLKPEDTAVYYCAADDTYHDYQRDTDDDYWGQGTQVTVSS”: the “polyreactivity (PSR sort gate)” value was “low polyreactivity”.

“QVQLVESGGGFVQAGGSLRLSCAASGYTLRIYAMGWYRQAPGKERELVAAISRSGGRTFYADSVKGRFTISRDNAKNTVYLQMNSLKPEDSAVYYCAAVPRSYDTGRMDYWGQGTQVTVSS”: the “polyreactivity (PSR sort gate)” value is recorded as “high polyreactivity”.

For “QVQLVESGGGLVQAGGSLRLSCAASGIIFPSYVMGWYRQAPGKERELVARISARGGRTYYADSVKGRFTISRDNAKNTVYLQMNSLKPEDTAVYYCAARWGITTWYDYWGQGTQVTVSS”, the “polyreactivity (PSR sort gate)” value was “high polyreactivity”.

Turning to “QVQLVESGGGLVQAGGSLRLSCAASGFTFSFYSMGWSRQAPGKERELVAAITSRGTSTYYADSVKGRFTISRDNAKNTVYLQMNSLKPEDTAVYYCAKLLPRGQWPYDYWGQGTQVTVSS”, the “polyreactivity (PSR sort gate)” value was “high polyreactivity”.

As to “QVQLVESGGGLVQAGGSLRLSCAASGRIFLGNTMGCYRQAPGKERELVAAISKRGGSTYYVDSVKGRFTISRDNAKNTVYLQMNSLKPEDTAVYYCNAGPLYSGVYSGYYWGQGTQVTVSS”, the “polyreactivity (PSR sort gate)” value is listed as “high polyreactivity”.

Regarding “QVQLVESGGGLVQAGGSLRLSCAASGPTFYKYAMGWYRQAPGKEREFVATITRRGGSTYYADSVKGRFTISRDNAKNTVYLQMNSLNPEDTAVYYCAKEIFLKGPDGHDYWGQGTQVTVSS”, the “polyreactivity (PSR sort gate)” value was “low polyreactivity”.

With “QVQLVESGGGLVQAGVSLRLSSAASGIIFAYYTMGWYRQAPGKERELVAAISWSGGSTYYADSVKGRFTISRDNAKNTVYLQMNSLKPEDTAVYYCAVVSRRTRLPYYYWGQGTQVTVSS”, the “polyreactivity (PSR sort gate)” value was “high polyreactivity”.

For the sequence “HVQLQESGGGLVQAGGDLRLSCAASGNIFRDYIMGWYRQAPGKEREFVAGIDRGANTNYADSVKGRFTISRDNAKNTVYLQMNSLIPEDTAVYYCAVHTAIVPDFIYWGQGTQVTVSS”, the “polyreactivity (PSR sort gate)” value is “low polyreactivity”.

Take “QVQLEESGGGLVQAGGSLRLSCAASGSTFPGNGMGCYRPEPGKERELVAYISGGGDSTYYADSVKGRFTISRDNAKNTVYLQMNSLKPEETAVYYCAADYRQEPGYTGYYYWGHGTQVTVSS”: the “polyreactivity (PSR sort gate)” value is “low polyreactivity”.

Take “QVQLVESGGGLVQAGGSLRLSCAASGITIRYYAMGWYRQAPGKERELVAAITRRGGSTSYADSVKGRFTISRDNAKNTVYLQMNSLKPEDTAVYYCNARKYTNQATYDYWGQGTQVTVSS”: the “polyreactivity (PSR sort gate)” value is listed as “high polyreactivity”.

Regarding “QVQLVESGGGLVQAGGSLRLSCAASGSIFAHYTMGWYRQAPGKERELVASISYRATRTHYADSVKGRFTISRDNAKNTVYLQMNSLKPEDTAVYYCNKGGYPGLQWGNYPPYRSKDDYWGQGTQVTVSS”, the “polyreactivity (PSR sort gate)” value is recorded as “high polyreactivity”.

On to “QVHLVESGGALVQAGGSLRLSCAASGFIFRKYAMGWYRQAPGKERELVAAISYRGASTYYADSVKGRFTISRDNAKNTVYLQMNSLKPEDTAVYYCADRYSNPWARVSGYDYWGQGTQVTVSS”, for which the “polyreactivity (PSR sort gate)” value is recorded as “high polyreactivity”.

As for “QVQLVESGGGLVQAGGSLRLSCAASGGTFGFNAMGWYRPAPGKERELVAAISSSGGRTYYADSVNGRFTISRDNAKNNVYLQMMSLKEEDTAVYYCAARVQVGGRSYVGYYYWGKGTQVTVSS”, the “polyreactivity (PSR sort gate)” value was “high polyreactivity”.

On to “QVQLVESGGGLVQAGGSLRLRGAASGNTIRYYAMGWYRQAPGKERELVAAINSRGGTTSYADSVKGRFTISRDNAKNTVYLQMNSLKPEDTAVYYCNKYIRYPFKRYGYWGQGTQVTVSS”, for which the “polyreactivity (PSR sort gate)” value is listed as “high polyreactivity”.

As to “QVQLVESGGGLVQAGGSLRLSCAASGRIFRVNGMGWDRQAPGKERELVAAIRRSGGSTYYADSVKGRFTISRDNAKNTVYLQMNSLKPEDTAVYYCAAPVRQSSYTRYDSWGQGTQVTVSS”, the “polyreactivity (PSR sort gate)” value was “high polyreactivity”.

Take “QVQLVESGGGLVQAGGSLRLSCAASGLIFSYNAMGWYRQAPGKVRELVATSRRVGSTHYADSVKGRFTISRDNAKNTVYLPMNSLKPEDTAVYDCAARSLRYGRGMYYWGQGTQGTVSS”: the “polyreactivity (PSR sort gate)” value is on record as “high polyreactivity”.

Regarding “QVQLVESGGGLVQAGGSLRLSCAASGIIIGSNAMGWYRQAPGKERELVAAISDSGGSTYYADSVKGRFTISRDNAKNTVYLQMNSLKPEDTAVYYCAAAGRGSWTTYRFDYWGQGTQVTVSS”, the “polyreactivity (PSR sort gate)” value is “high polyreactivity”.

For “QVQLVESGGGLVQAGGSLRLSCAASGFAFSYYAMGWYRQAPGKEREFVASIDWSGGSTYYADSVKGRFTISRDIAKTTVYLQMNRLKPEDTAVYYCAAELDYFPGYDYWGQGTQVTVSS”, the “polyreactivity (PSR sort gate)” value is listed as “low polyreactivity”.

For “QVQLVESGGGLVQAGGSLRLSCAASGFTFYTYALGWYRQAPGKEWELVAAITSGGGTYYADSVKGRFTISRDNAKNTVYLQMNSLKPEDTAVYYCNRASRRGYYYPYNYWGQGTQVTVSS”, the “polyreactivity (PSR sort gate)” value is “high polyreactivity”.

“QVQLVESGGGLVQAGGSLRLSCAASGNTFVSNAMGWYRPAPGKERELVAAISSTGNTNYADSVKGRFTISRDNAKNTDYLQMNSLKPEDTAVYYCAKGDKRAYVAYKEGSWGQGTQVTVSS”: the “polyreactivity (PSR sort gate)” value is on record as “low polyreactivity”.

Consider “QVQLVESGGGLVQAGGSLRLSCAASGFIFPWYAMGWYRQAPGKERELVAIISWDTGSTYYADSVKGRFTISRDNAKNTVYLQMNSLKPEDTAVYYCAAAYYYYVSGWFDYWGQGTQVTVSS”, for which the “polyreactivity (PSR sort gate)” value is listed as “low polyreactivity”.
